# The domain aggregation screens of Martell et al. (2025)
# Assay: soluble fraction after stress (log2 fold change); higher = more stays soluble; pooled small domains, quantitative proteomics
# Details: stress: pH 4
# In short: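 How much of each domain stays soluble after acid stress, expressed as a fold change, is used to gauge aggregation propensity. Pooled custom libraries of small domains underwent pH 4 stress before high-throughput quantitative proteomics. A higher log2 value means more of the domain stayed soluble.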
row,Sequence,soluble fraction (log2)
1,HMGMYAEERHQAIASLARKHGRVSVAELAERFNVTSETIRRDLDSLARRGLLTRVHGGAVPVE,≥ 0.43
2,HMTRQNTAVQQSDMAHHKASELTEGMSIVHSHFGRGTIISIETADDPRVTVDFSSEGRKTMLLRFAKFAIE,-1.08
3,HMNDPNAPITENQLKAIHVLLDKLKVDDNLKHAYIADVLQLDNEPETLKTLTKAQGSMAIERMQLLKDN,-0.42
4,HMFRMTPQRMAILAEVQNAERHLTAAEIYERVRRKYPTIAYGTVYRTLHLLAKHGLIQEFPFGDNASLFDR,-0.0123
5,HMGTTLTKIPGIGENRARLLLRHFGSLRAVREADADALAAVKGMTRPAAEAIVRYFEQQDAEGRRD,0.336
6,HMEEFIEHTVEKGEFLSAIIVAYNQHLKSKGFKSITTRDILNANPKLKPELIQVGQKIKIPRRKK,-0.0958
7,HMEFLDLEIDVDATDGRLLAFLAAKGEVVSQTFNDTIITVRVRMPTGAMGQVHRSALAIRPA,-1.43
8,HMVKTANVAYSEFLKLVESDNISDVSIVGRTITGHLDDGTKFSTYTPPNDPSLIDKLTRKNVIIKSAPE,0.181
9,HMIDENILSEEIKHYIETNNYAKDDKLPSERSLASLFNVSRALVRKSLISLVDVNYLYVKDKSGYYING,-0.52
10,HMRDDAIQQGREIVERELHRLDLAYTTLTDVLAKLEYEKLDDLYAAVGFGIRSPHSVAAAALQVERDKA,-1.19
11,HMSLRVIEIFGTPQQMSARISLMDGSVTDVKVGQSIPGTSYKVASITGNGVWIQNGTAVSYTHL,0.00817
12,HMHFENEETFVLPLVREGFSEQQQLEMVDRLLFDANTDNPRWIIDWMASELPSTQRELLLDLEKRLAEVRS,-0.358
13,HMLDEKAVRQYLLNTLENSEIKMDRQAIDLFLRLTDLDLSKMMRELQKILLYGQEQEVITVKEIEQ,-1.17
14,HMVNVLKNSTVIDLVKNNLSDALIISLIRRAKVDFSLMTDDVIELSGKGVSPAVIMEMRQAMIRQASEIQN,-0.183
15,HMDEEVLVVQEGGERLDVFVAANAEGITRSFVQNLIKKGDVTVDGAPRKANYRLRSGQVVRFSLPEP,0.293
16,HMAWAVRAGEGVLIRAGQPGFSATTRGTALSNGAIGEGVRVRNLGSGKEIQAWVVDKGEVETR,0.136
17,HMRQSSLRTRELLIDAARQLFARFGVEKTTMNDIAEASKRGRRTVYMYFNSKSDVFYAVVGRE,-0.116
18,HMHSPTFYVHVVGQVKVPGVYELEVGSRLFDAVIAAGGFKDDADQASVNLARPLSDGEQIVVLKLGDQ,-0.732
19,HMNPHGVAIIDVRKGKASTLRSLATSVRSLGEWDQLKIPIFNLESLTSLVLWHGLDAIVKEPESLQSNLIL,-0.222
20,HMQAGNAVEQYPTIGRLEEVTLGRSQPGAPIGERLSTLETVVFKRNFNDDSLFDRTERLKKTILGG,-0.0794
21,HMAKRPRFEDVIKEINTEIQKRKGKWNLTILSWMDFDDVAQVIRIHIYRKWHLYDPSKPLGPWLNR,0.322
22,HMTANDKRNALYRKIEVGRRQLPAMDEVAFRQLLAAEFGVESRKDMSVGQLSRLVNILAEKGAVF,0.0414
23,HMVSLEEIINDLTSRIQTAVKMRFSDFVQNRKERVGVIVSFLGMLELVKQGIIDIKQEGHFADIEMETA,-0.58
24,HMGIKYTNQRVEILNFLKDNLSHPTVDDVYEGVKKKLTRISKATVYQNLKFLASKGLIQEVNIKGVSRFEP,0.22
25,HMPEPMKLSDLPPELWQRVSDLFDEVIDLPETDRIPYIRNLWGSEPLVAKELMALLVAAANVD,-1.1
26,HMLDNHPQSKKIRALWLEMAAAGVVRDSSEQALALWVKRETGISALRWLSNEQASSVIEKLKKWQRRAAG,-0.0161

row,Sequence,soluble fraction (log2)
1,HMRGRFGNAAPARNLGDHPQGGAINVKAGRYGPYVSWGKVNATLPKDSDPEKVTLEEAVALIAAKQSGQG,0.218
2,HMVITDPFFLEPENLVKDAVALMEKYRISGVPITKKGKLVGILTNRDLRFESNYEQPIANVMS,-0.363
3,HMKLTKPQEVFIQELLKGSSQYEAYLKAYPSKKTWKRNSIDTEASKLFKNAKIKQRYEELLYNIREE,-0.175
4,HMGNASQAARRQRIVDAALELLQDRPYDQIQMRDVAEGAGVALGTLYRYFPSKEQLFAHVLVE,-0.701
5,HMNTFKNIFIQEGDLFNLKKNDNQIIFAKEGILINENKKIFRLLNGKIISTNNNRLIGFEFDKIDYNLSN,-0.0628
6,HMKYEGEDEYYASLVTEKIAAIGTVTEESEDAIKEARAAYDALTSAQKKLVTNYDVLDEAEK,0.302
7,HMVEPDELTEREREVLQFVARGLSNKEIGAALALSPHTIKAHLRSILDKLHLRSRAEAAAWAVRSGLS,-0.162
8,HMTNVYSLIGKRGIVVEDIDWQKGTGQVKIDGELWSVKTNEQINISKGTEVEVENIEGVKVFVKPI,-0.458
9,HMSEYVIVTGEKVNLRVGPGMDYEIAGQVVKGDKLELLASEGDWSKVKTGSGSIYYISSSLVQKA,-0.334
10,HMFDLSQRQEQIIEIVRKHGPITGEKIADLLYVTRAALRPDLAILTMSGYLEAKPRVGYTYK,-0.0725
11,HMTKSTSMDLGGFMIVEGSETVRLGGQILQKDVDYTIDYFSGKINFISEEALNPGAEISVSYEENQ,-1.44
12,HMLSVRNRMSDVLKSLDDGEFHRFESLFNLEEGRLGVVVTFLAMLELAKEMLVEIVQNESLGPIYLKSR,0.144
13,HMEYEETMSQIKHNLNLLPRQQRVIIEMAKFDELTPAEIAKQLGISVQTVRNQLSTGLKKLRQLL,-0.373
14,HMVKLDDLTGQDKATAEATITNSGLKYSEQQEFSDEVEAGKVIRTDPGAGTSSLKAGDTVTVYVSRGPEN,-0.0896
15,HMDHAVINSEEVTIKDLSEKIGVSAAEIIKALFTEGIIKTINDKIEYEYAQYVAGMFGVELTLKL,0.188
16,HMEILTRQLTHYLHLLPPAQQEVVRGVYLQDQTLQEIADRVQIPLGTVKSRLRLGLSKLREQIEQEHE,0.291
17,HMEKEKIKEALIGYFEAEPEEKFTVQELADKLKMNKAGQFNFVVQAVAQLEHDKVITLDDEGNFSLVRHE,-0.967
18,HMFFDKIIVDFLADGSRIDKYISTLYPDISRTHIQRLIAEQFILVNDSVVKSNYKLSTNDVVLIHIPEA,-1.78
19,HMGAITGLQSRVAFLKGQGTITDAEAKTAMAFLPDPTDSKEVKIAKIGQAREYIMSLIENRA,-0.0578
20,HMNIEEAESILKEIKTVLTDKEYEVYTLRAKGFTYQEIASLLNTTTKSVDGALSRIKTKINNIK,0.0204
21,HMNEMIFNQKKIGQFFMNPETNSPMIYPLELGHKMKIIELKNGWYNVTDEKTGLNGWVKEEDFGVTKPLDS,0.0629
22,HMQSVKTQPLRDWLLAHFDKPYPDDEDKVRLAEASGMTRAQVGNWFINARVRTWRPMVLDLGEEIERESV,-0.521
23,HMREQAHEVAGKLGYPVMVKASAGGGGKGIRIVRTEDELDQAFEAAQSETKAAFGDDQMYMEKVI,-0.176
24,HMEVFGDTKEEQMIIDILKLGITDLEHLQAKSMLEPAIFSQTLTMLEISGKIRPLGAGHWTL,-1.49
25,HMVETDQESSLIQAIYKYFEITGDNTFFDEKVGEKTVADRMEWAMDYLIQNRFSEEYGLIWGA,-0.517
26,HMKHVDLDNNERYIYGIIGSTKIHVDEVVEKSGMETKHVMAILTNLELKEAIKGIPGGFYLR,-1.19

row,Sequence,soluble fraction (log2)
1,HMSGILINGELYKPGEQMSLKQRLSIQARIQMQGEDTVKPEMLKDFYNSGGPLSKEESSEYMKSQN,-0.321
2,HMTRVDKLQTWLSLPREQRDWDEGALMLLQLTGNKIMYRNLSVNPEGKANFIEGKLQQYLEFRLA,-1.16
3,HMGVTDSSYNVLRRQILEMLSVQQRTPADLARLIEADKEEIAAVIRFLLDKGEIQMEDGMLQTK,-0.151
4,HMRMSQLSRLISILTLLKSKRLLTATELAEKYDVSIRTVYRDIRKLEEAGIPVYTIEGRGYSLMDNYT,-0.299
5,HMNINTEMEKVSYSLGVNIASSLKQQGWELDAKSLSDAFVDVFNGNKLLIDEKEASSILQNYQQKIANK,-1.1
6,HMDPKWSHVRRLLDDENPIVRKALTEELIRSPEEGLAFLEQVIREPDHLLAKHAHNLLSELGWV,0.0459
7,HMGNVGEAIEALVKGFQEGNQFQTLLGVTGSGKTFTMANVIAALNKPTLIISHNKTLAAQLYLSLIHIS,-0.255
8,HMDSTTHALALVRTLPRDQAEAVLLRVVADLDYADVAEIMGRSPGAVRVLVHRGLRRLEQELATRRT,-0.426
9,HMTPVSQIATKDIEEKIDSLSDEYKDPFILHFKGFKYKEIADQLDIPIGTVKSRIFIARKKLIDLLPDY,-0.391
10,HMPKLTKEEIQFIDNYLKNSGVEYIDTRAEVVDHVASEIESRLSANNTTNFYEEFKVYMVQHKETLLK,-0.96
11,HMVLSKGAKELLDFIMREGEVTTSKVVQKFGGSAQNASAKLKKLYATGLILGSKAVAESGGLEFVYKA,0.1
12,HMQMTTPQMVPLFTDLSVDDSASIIKDLERQAVPYQIKSDGAIIMVPKDKVTRLRMKLAESGLPK,0.402
13,HMVLENLKKFIDSKGISVSAFEKSIGMSNNSFRKSLNSGGHIGSDKLENILKIYPELNPVWLLQGEGEML,-0.0839
14,HMEVFTPSEANVAEAREILAAMATAKANGEGATVYKGRLVDIASIKQAEVIVRQSEMIQSAH,-0.151
15,HMYSSIIGIAFTRAENKPAAPTGGSYSNPHPVDGNWKAAPYDGDGNLWYSIRHFNENVDIQDREWSDPTLG,0.0834
16,HMISSKDIINDEDGARLGKIADVEIDVATGKILSVHVYRSFKLLHLFGNKDVVQIPWNKIMKIGSDVVIVE,-0.198
17,HMATVIDVATTLGRPITDPDEQRQVLNWIGKTERIISARLGDLAALDRQILADVISEVVARRARN,-0.726
18,HMGTQIKSPMPGTILDVRVNVGDTVKEGDILMILEAMKMENEILAPVSGKVAAIQVSKGTAVNSGDLLAVL,-0.404
19,HMSMTLSVLDDVRGLSESRRKQLFHSFGSIKKLREQSKETLMSIPYLPEKVALELYDKLHEE,0.272
20,HMKKVIKIEENVSLQKLAALMSLKVTDVLMRLLSMGMSGVNINSTIDADTAKILASEFGWTVED,-0.669
21,HMPLNAFDVAGYRLGYGGGYFDRTLAALSPRPLAVGVGFEINRLESIRPEAHDQRLDWIVTENGAFRPA,-0.944
22,HMGMVEFEIGERDHSEDVSRKLFEAGLIEDASDFNQYMIEKKMDDHLQTGKYQIPKGATKDEILELIVR,-0.674
23,HMDLFLVYQFIRRLATPFTEWKAHELGIIDDKGVQLKKRRDFTTREEKDAYGIFDIMITKLKRLIEKV,-1.04
24,HMNILNFSENIIKLRHKKGITQEELADFVGVTKASVSKWETKQSLPDIMLLPRLAAYFDVTVDELLGYEP,-0.115
